Measurements: patent US20200116725

Key:
[1] = system: P220 MMP9-cleavable peptide, Biotin-GGGGGGGGGGPLGVRGKGGC
[2] = system: P120 thrombin-cleavable peptide, Biotin-GGGSGGGSGGfPRSGGGGGC
[3] = system: P213 MMP9-cleavable peptide, Biotin-GGGPLGVRGKGGC
[4] = system: P113 thrombin-cleavable peptide, Biotin-SGGfPRSGGSGGC

Sequence of MMP9 (Active, Human, Recombinant, PF140, Merck Millipore) (chain, as listed by the source): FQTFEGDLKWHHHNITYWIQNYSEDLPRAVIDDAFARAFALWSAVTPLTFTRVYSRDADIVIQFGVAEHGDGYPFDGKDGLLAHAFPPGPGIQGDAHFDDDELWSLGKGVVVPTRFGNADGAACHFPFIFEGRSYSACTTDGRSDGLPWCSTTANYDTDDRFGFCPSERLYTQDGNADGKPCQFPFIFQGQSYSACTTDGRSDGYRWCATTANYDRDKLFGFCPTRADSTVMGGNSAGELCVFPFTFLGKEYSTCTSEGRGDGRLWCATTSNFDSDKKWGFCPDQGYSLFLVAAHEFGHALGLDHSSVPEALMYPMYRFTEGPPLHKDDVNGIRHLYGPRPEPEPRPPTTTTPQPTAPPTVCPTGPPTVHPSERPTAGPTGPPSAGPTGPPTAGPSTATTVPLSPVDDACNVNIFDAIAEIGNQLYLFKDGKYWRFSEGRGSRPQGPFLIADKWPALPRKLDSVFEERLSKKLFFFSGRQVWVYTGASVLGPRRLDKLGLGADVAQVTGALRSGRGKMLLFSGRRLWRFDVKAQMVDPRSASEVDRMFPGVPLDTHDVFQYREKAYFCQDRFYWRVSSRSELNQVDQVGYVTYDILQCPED
Sequence of P120 thrombin-cleavable peptide, Biotin-GGGSGGGSGGfPRSGGGGGC (chain, as listed by the source): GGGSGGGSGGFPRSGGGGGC

## MMP9 (Active, Human, Recombinant, PF140, Merck Millipore)
[1]
  % Cleavage (free AuNC fraction: 7-12 mL), gel filtration chromatography with catalytic activity readout; AuNC-P220-NAv + MMP7/9/13 (12 h): MMP9: 54.9%
  % Cleavage (free AuNC fraction: 7-12 mL), gel filtration chromatography with catalytic activity readout; AuNC-P220-NAv + MMP9 (12 h): 75.1%
  fraction of AuNCs cleaved from AuNC-P220-NAv within 1 h, FCS, 50 nM MMP9: 80% AuNCs are cleaved within the first hour of incubation with MMP9
  rate of cleavage by FCS (linear region, 50 nM MMP9), AuNC-P220-NAv complex: 3% AuNC cleaved per minute
[2]
  % Cleavage (free AuNC fraction: 7-12 mL), gel filtration chromatography with catalytic activity readout; AuNC-P120-NAv + MMP9 (12 h): 7.1%
[3]
  fraction of AuNCs cleaved from AuNC-P213-NAv within 1 h, FCS, 50 nM MMP9: only 20% AuNCs are cleaved from the AuNC-P213-NAv complex
  rate of cleavage by FCS (linear region, 50 nM MMP9), AuNC-P213-NAv complex: only 0.08% AuNC cleaved per minute

## MMP13 (Active, Human, Recombinant, 444287)
[1]
  % Cleavage (free AuNC fraction: 7-12 mL), gel filtration chromatography with catalytic activity readout; AuNC-P220-NAv + MMP7/9/13 (12 h): MMP13: 29.8%

## thrombin from human plasma (T7009, Sigma)
[4]
  % Cleavage (free AuNC fraction: 7-12 mL), gel filtration chromatography with catalytic activity readout; AuNC-P113-NAv + THR (12 h): 21.8%
[1]
  % Cleavage (free AuNC fraction: 7-12 mL), gel filtration chromatography with catalytic activity readout; AuNC-P220-NAv + THR (12 h): 5.5%
[2]
  % Cleavage (free AuNC fraction: 7-12 mL), gel filtration chromatography with catalytic activity readout; AuNC-1:5-P120-NAv + THR (1 h), ca. 20 biotin ligands per AuNC: 49.6%
  % Cleavage (free AuNC fraction: 7-12 mL), gel filtration chromatography with catalytic activity readout; AuNC-1:20-P120-NAv + THR (1 h), ca. 5 biotin ligands per AuNC: 89.9%
  % Cleavage (free AuNC fraction: 7-12 mL), gel filtration chromatography with catalytic activity readout; AuNC-P120-NAv + THR (12 h): 90.2%
